Measured values from publication PMC11558545, “Mechanistic Insights into the Function of 14-3-3 Proteins as Negative Regulators of Brassinosteroid Signaling in Arabidopsis” (Plant and Cell Physiology, 2024).
Substitutions are numbered along the chain they refer to. Names may count otherwise. Square brackets hold non-standard residues; d marks the D form. Ends that are not written are not given here. pT = C[C@@H](OP(=O)(O)O)[C@H](N)C(=O)O; pS = N[C@@H](COP(=O)(O)O)C(=O)O

T1: At14-3-3 λ^N233A (Arabidopsis thaliana, UniProt P48349 1-248, N233A)
T1 construct: 14-3-3 lambda (GRF6), Arabidopsis thaliana, with N233A; also called 14-3-3λ Asn233→ Ala mutant; source: E. coli BL21 (DE3) RIL, purified using the same protocol as the wild type; not shown: thioredoxin A, N-terminal, cleaved; 8xHis, N-terminal, cleaved; StrepII, N-terminal, cleaved
T1 sequence (looked up): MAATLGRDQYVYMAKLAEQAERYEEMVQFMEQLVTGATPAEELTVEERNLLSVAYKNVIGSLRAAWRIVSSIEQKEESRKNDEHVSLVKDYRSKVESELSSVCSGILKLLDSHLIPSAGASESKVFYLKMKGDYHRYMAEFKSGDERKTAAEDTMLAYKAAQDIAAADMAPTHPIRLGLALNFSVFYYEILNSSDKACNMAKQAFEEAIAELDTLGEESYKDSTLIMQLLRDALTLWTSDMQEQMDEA

T2: Arabidopsis 14-3-3 isoform kappa (At14-3-3-κ^1−248) (Arabidopsis thaliana, UniProt P48348 1-248)
T2 construct: 14-3-3 kappa (GRF8), Arabidopsis thaliana, full length, residues 1-248; The ITC text names 14-3-3κ without limits; a truncated 1-240 construct was also cloned; not shown: thioredoxin A, N-terminal, cleaved; 8xHis, N-terminal, cleaved; StrepII, N-terminal, cleaved
T2 sequence (looked up): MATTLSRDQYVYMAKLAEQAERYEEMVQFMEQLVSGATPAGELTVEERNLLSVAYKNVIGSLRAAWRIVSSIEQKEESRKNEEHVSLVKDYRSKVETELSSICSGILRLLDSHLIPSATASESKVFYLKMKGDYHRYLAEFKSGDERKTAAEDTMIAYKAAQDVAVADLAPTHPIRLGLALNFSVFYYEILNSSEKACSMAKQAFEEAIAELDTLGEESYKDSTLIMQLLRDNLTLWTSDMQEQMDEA

B1: pBKI1^265−272 peptide (peptide)
peptide: RGELF[pS]AP
notes: also called RGELFpSAP; source: synthetic peptide (Peptide Specialty Laboratories)
B2: pBZR1^169−175 peptide (peptide)
peptide: RISN[pS]AP
notes: also called RISNpSAP; source: synthetic peptide (Peptide Specialty Laboratories)
B3: pBZR1^169−184 peptide (peptide)
peptide: RISN[pS]CPV[pT]PPVSSPT
notes: also called extended BZR1 linear motif; source: synthetic peptide (Peptide Specialty Laboratories)
B4: Arabidopsis 14-3-3 lambda (At14-3-3-λ^1−248) (natural protein, Arabidopsis thaliana, UniProt P48349 1-248, looked up)
chain: T1 sequence (looked up) with A233N
notes: 14-3-3 lambda (GRF6), Arabidopsis thaliana, full length, residues 1-248; The ITC text names 14-3-3λ without limits; a truncated 1-240 construct was also cloned; not shown: thioredoxin A, N-terminal, cleaved; 8xHis, N-terminal, cleaved; StrepII, N-terminal, cleaved
B5: Arabidopsis 14-3-3 omega, full length (At14-3-3-ω^1−259) (natural protein, Arabidopsis thaliana, UniProt Q01525 1-259, looked up)
chain: MASGREEFVYMAKLAEQAERYEEMVEFMEKVSAAVDGDELTVEERNLLSVAYKNVIGARRASWRIISSIEQKEESRGNDDHVTAIREYRSKIETELSGICDGILKLLDSRLIPAAASGDSKVFYLKMKGDYHRYLAEFKTGQERKDAAEHTLAAYKSAQDIANAELAPTHPIRLGLALNFSVFYYEILNSPDRACNLAKQAFDEAIAELDTLGEESYKDSTLIMQLLRDNLTLWTSDMQDDAADEIKEAAAPKPTEEQQ
notes: 14-3-3 omega (GRF2), Arabidopsis thaliana, full length, residues 1-259; ITC and SEC-RALS name 14-3-3 ω without limits; not shown: thioredoxin A, N-terminal, cleaved; 8xHis, N-terminal, cleaved; StrepII, N-terminal, cleaved
B6: C-terminal truncated At14-3-3-ω^1−237 (domain or fragment, Arabidopsis thaliana, UniProt Q01525 1-237, looked up)
chain: MASGREEFVYMAKLAEQAERYEEMVEFMEKVSAAVDGDELTVEERNLLSVAYKNVIGARRASWRIISSIEQKEESRGNDDHVTAIREYRSKIETELSGICDGILKLLDSRLIPAAASGDSKVFYLKMKGDYHRYLAEFKTGQERKDAAEHTLAAYKSAQDIANAELAPTHPIRLGLALNFSVFYYEILNSPDRACNLAKQAFDEAIAELDTLGEESYKDSTLIMQLLRDNLTLWTSD
notes: 14-3-3 omega (GRF2), Arabidopsis thaliana, residues 1-237; also called truncated 14-3-3 ω; not shown: thioredoxin A, N-terminal, cleaved; 8xHis, N-terminal, cleaved; StrepII, N-terminal, cleaved
B7: pBRI1^869−874 peptide (peptide)
peptide: RKL[pT]FA
notes: BRI1, Arabidopsis thaliana, residues 869-874, N-lobe of the kinase domain; also called RKLpTFA; source: synthetic peptide (Peptide Specialty Laboratories)
B8: 14-3-3 λ^R136L/Y137F (natural protein, Arabidopsis thaliana, UniProt P48349 1-248, looked up)
chain: T1 sequence (looked up) with R136L, Y137F, A233N
notes: 14-3-3 lambda (GRF6), Arabidopsis thaliana, with R136L and Y137F; also called 14-3-3λ Arg136→Leu/Tyr137→ Phe double mutant; source: E. coli BL21 (DE3) RIL, purified using the same protocol as the wild type; not shown: thioredoxin A, N-terminal, cleaved; 8xHis, N-terminal, cleaved; StrepII, N-terminal, cleaved

Legend:
[1] = target: B6; assay: crystal structure; co-crystallisation of 14-3-3 with 1-3 mM phosphopeptide; molecular replacement; details: both partners purified
[2] = target: B4; assay: ITC; Nano ITC, 25°C, 25 mM Hepes pH 7.0, 50 mM KCl; 600 μM peptide or phosphopeptide injected into 50 μM 14-3-3 protein in the cell, 25 injections; details: both partners purified
[3] = target: B5; assay: as above; details: both partners purified
At14-3-3 λ^N233A = target: T1, At14-3-3 λ^N233A; assay: as above; details: both partners purified
[4] = target: B5; assay: crystal structure; co-crystallisation of 14-3-3 with 1-3 mM phosphopeptide; molecular replacement; details: both partners purified
[5] = target: T2, Arabidopsis 14-3-3 isoform kappa …; assay: ITC; Nano ITC, 25°C, 25 mM Hepes pH 7.0, 50 mM KCl; 600 μM peptide or phosphopeptide injected into 50 μM 14-3-3 protein in the cell, 25 injections; details: both partners purified
[6] = target: the molecule itself; assay: crystal structure; co-crystallisation of 14-3-3 with 1-3 mM phosphopeptide; molecular replacement
[7] = target: the molecule itself; assay: SEC; analytical, Superdex 200 increase 10/300 GL, 25 mM Hepes pH 7.0, 50 mM KCl; 500 μl of protein at 2.0 mg/ml

B1
binding result [1]: binds
binding result [2]: binds
binding result [3]: binds
binding result (At14-3-3 λ^N233A): binds

B2
binding result [1]: binds
binding result [2]: binds
fold reduction of interaction by the N233A mutation (At14-3-3 λ^N233A): ~5 fold

B3
binding result [4]: binds
fold reduction of binding against the BZR1^169−175 motif [5]: ~10 fold
stoichiometry N [5]: ~1

B4
binding result [6]: binds

B5
binding result [6]: binds

B6
binding result [6]: binds

B7
fold reduction of interaction by the N233A mutation (At14-3-3 λ^N233A): ~2 fold

B8
stoichiometry N [7]: 2
